Test results from US20120316071A1 (published 2012).
Substitutions are numbered along the chain they refer to. Names may count otherwise.

B1: Fab VH5-51_IGHD5-18*01>3_IGHJ4*01 G100K/G104T G24T/S28R/G35V & V3-4_IGLJ1*01 V91L/S96P (Fab, V domains shown)
VH: EVQLVQSGAEVKKPGESLKISCKTSGYRFTSYWIVWVRQMPGKGLEWMGIIYPGDSDTRYSPSFQGQVTISADKSISTAYLQWSSLKASDTAMYYCARRKYSYTYDYFDYWGQGTLVTVSS
VL: QTVVTQEPSFSVSPGGTVTLTCGLSSGSVSTSYYPSWYQQTPGQAPRTLIYSTNTRSSGVPDRFSGSILGNKAALTITGAQADDESDYYCLLYMGPGISYVFGTGTKVTVL
notes: Fab expressed in E. coli; heavy chain vector adds CH1 with His6 and Flag tags, light chain vector adds lambda CL; Template of the S52, T53 and S57 light chain mutants; also called H:KT TRV & L:LP
B2: Fab VH5-51_IGHD5-18*01>3_IGHJ4*01 G100K/G104T G24T/S28R/G35V & V3-4_IGLJ1*01 V91L/S96P S52D (Fab, V domains shown)
VH: B1 VH
VL: B1 VL with S52D
notes: Fab expressed in E. coli; heavy chain vector adds CH1 with His6 and Flag tags, light chain vector adds lambda CL; also called H:KT TRV & L:LP S52D
B3: Fab VH5-51_IGHD5-18*01>3_IGHJ4*01 G100K/G104T G24T/S28R/G35V & V3-4_IGLJ1*01 V91L/S96P S52E (Fab, V domains shown)
VH: B1 VH
VL: B1 VL with S52E
notes: Fab expressed in E. coli; heavy chain vector adds CH1 with His6 and Flag tags, light chain vector adds lambda CL; also called H:KT TRV & L:LP S52E
B4: Fab VH5-51_IGHD5-18*01>3_IGHJ4*01 G100K/G104T G24T/S28R/G35V & V3-4_IGLJ1*01 V91L/S96P S52F (Fab, V domains shown)
VH: B1 VH
VL: B1 VL with S52F
notes: Fab expressed in E. coli; heavy chain vector adds CH1 with His6 and Flag tags, light chain vector adds lambda CL; also called H:KT TRV & L:LP S52F
B5: Fab VH5-51_IGHD5-18*01>3_IGHJ4*01 G100K/G104T G24T/S28R/G35V & V3-4_IGLJ1*01 V91L/S96P S52G (Fab, V domains shown)
VH: B1 VH
VL: B1 VL with S52G
notes: Fab expressed in E. coli; heavy chain vector adds CH1 with His6 and Flag tags, light chain vector adds lambda CL; also called H:KT TRV & L:LP S52G
B6: Fab VH5-51_IGHD5-18*01>3_IGHJ4*01 G100K/G104T G24T/S28R/G35V & V3-4_IGLJ1*01 V91L/S96P S52H (Fab, V domains shown)
VH: B1 VH
VL: B1 VL with S52H
notes: Fab expressed in E. coli; heavy chain vector adds CH1 with His6 and Flag tags, light chain vector adds lambda CL; also called H:KT TRV & L:LP S52H
B7: Fab VH5-51_IGHD5-18*01>3_IGHJ4*01 G100K/G104T G24T/S28R/G35V & V3-4_IGLJ1*01 V91L/S96P S52I (Fab, V domains shown)
VH: B1 VH
VL: B1 VL with S52I
notes: Fab expressed in E. coli; heavy chain vector adds CH1 with His6 and Flag tags, light chain vector adds lambda CL; also called H:KT TRV & L:LP S52I
B8: Fab VH5-51_IGHD5-18*01>3_IGHJ4*01 G100K/G104T G24T/S28R/G35V & V3-4_IGLJ1*01 V91L/S96P S52K (Fab, V domains shown)
VH: B1 VH
VL: B1 VL with S52K
notes: Fab expressed in E. coli; heavy chain vector adds CH1 with His6 and Flag tags, light chain vector adds lambda CL; also called H:KT TRV & L:LP S52K
B9: Fab VH5-51_IGHD5-18*01>3_IGHJ4*01 G100K/G104T G24T/S28R/G35V & V3-4_IGLJ1*01 V91L/S96P S52L (Fab, V domains shown)
VH: B1 VH
VL: B1 VL with S52L
notes: Fab expressed in E. coli; heavy chain vector adds CH1 with His6 and Flag tags, light chain vector adds lambda CL; also called H:KT TRV & L:LP S52L
B10: Fab VH5-51_IGHD5-18*01>3_IGHJ4*01 G100K/G104T G24T/S28R/G35V (H:KT TRV) & V3-4_IGLJ1*01 T78S (Fab, V domains shown)
VH: B1 VH
VL: B1 VL with T78S, L91V, P96S
notes: Fab; expressed in E. coli with CH1 (Plasmid A, His6 and Flag tags) and lambda CL (Plasmid E); also called H:KT TRV & T78S
B11: Fab VH5-51_IGHD5-18*01>3_IGHJ4*01 G100K/G104T G24T/S28R/G35V (H:KT TRV) & V3-4_IGLJ1*01 G23A (Fab, V domains shown)
VH: B1 VH
VL: B1 VL with G23A, L91V, P96S
notes: Fab; expressed in E. coli with CH1 (Plasmid A, His6 and Flag tags) and lambda CL (Plasmid E); also called H:KT TRV & G23A
B12: Fab VH5-51_IGHD5-18*01>3_IGHJ4*01 G100K/G104T G24T/S28R/G35V (H:KT TRV) & V3-4_IGLJ1*01 G27A (Fab, V domains shown)
VH: B1 VH
VL: B1 VL with G27A, L91V, P96S
notes: Fab; expressed in E. coli with CH1 (Plasmid A, His6 and Flag tags) and lambda CL (Plasmid E); also called H:KT TRV & G27A
B13: Fab VH5-51_IGHD5-18*01>3_IGHJ4*01 G100K/G104T G24T/S28R/G35V (H:KT TRV) & V3-4_IGLJ1*01 G95A (Fab, V domains shown)
VH: B1 VH
VL: B1 VL with L91V, G95A, P96S
notes: Fab; expressed in E. coli with CH1 (Plasmid A, His6 and Flag tags) and lambda CL (Plasmid E); also called H:KT TRV & G95A
B14: Fab VH5-51_IGHD5-18*01>3_IGHJ4*01 G100K/G104T G24T/S28R/G35V (H:KT TRV) & V3-4_IGLJ1*01 G97A (Fab, V domains shown)
VH: B1 VH
VL: B1 VL with L91V, P96S, G97A
notes: Fab; expressed in E. coli with CH1 (Plasmid A, His6 and Flag tags) and lambda CL (Plasmid E); also called H:KT TRV & G97A
B15: Fab VH5-51_IGHD5-18*01>3_IGHJ4*01 G100K/G104T G24T/S28R/G35V (H:KT TRV) & V3-4_IGLJ1*01 I98A (Fab, V domains shown)
VH: B1 VH
VL: B1 VL with L91V, P96S, I98A
notes: Fab; expressed in E. coli with CH1 (Plasmid A, His6 and Flag tags) and lambda CL (Plasmid E); also called H:KT TRV & I98A
B16: Fab VH5-51_IGHD5-18*01>3_IGHJ4*01 G100K/G104T G24T/S28R/G35V (H:KT TRV) & V3-4_IGLJ1*01 L24A (Fab, V domains shown)
VH: B1 VH
VL: B1 VL with L24A, L91V, P96S
notes: Fab; expressed in E. coli with CH1 (Plasmid A, His6 and Flag tags) and lambda CL (Plasmid E); also called H:KT TRV & L24A
B17: Fab VH5-51_IGHD5-18*01>3_IGHJ4*01 G100K/G104T G24T/S28R/G35V (H:KT TRV) & V3-4_IGLJ1*01 L92A (Fab, V domains shown)
VH: B1 VH
VL: B1 VL with L91V, L92A, P96S
notes: Fab; expressed in E. coli with CH1 (Plasmid A, His6 and Flag tags) and lambda CL (Plasmid E); also called H:KT TRV & L92A
B18: Fab VH5-51_IGHD5-18*01>3_IGHJ4*01 G100K/G104T G24T/S28R/G35V (H:KT TRV) & V3-4_IGLJ1*01 M94A (Fab, V domains shown)
VH: B1 VH
VL: B1 VL with L91V, M94A, P96S
notes: Fab; expressed in E. coli with CH1 (Plasmid A, His6 and Flag tags) and lambda CL (Plasmid E); also called H:KT TRV & M94A
B19: Fab VH5-51_IGHD5-18*01>3_IGHJ4*01 G100K/G104T G24T/S28R/G35V (H:KT TRV) & V3-4_IGLJ1*01 P35A (Fab, V domains shown)
VH: B1 VH
VL: B1 VL with P35A, L91V, P96S
notes: Fab; expressed in E. coli with CH1 (Plasmid A, His6 and Flag tags) and lambda CL (Plasmid E); also called H:KT TRV & P35A
B20: Fab VH5-51_IGHD5-18*01>3_IGHJ4*01 G100K/G104T G24T/S28R/G35V (H:KT TRV) & V3-4_IGLJ1*01 S25A (Fab, V domains shown)
VH: B1 VH
VL: B1 VL with S25A, L91V, P96S
notes: Fab; expressed in E. coli with CH1 (Plasmid A, His6 and Flag tags) and lambda CL (Plasmid E); also called H:KT TRV & S25A
B21: Fab VH5-51_IGHD5-18*01>3_IGHJ4*01 G100K/G104T G24T/S28R/G35V (H:KT TRV) & V3-4_IGLJ1*01 S26A (Fab, V domains shown)
VH: B1 VH
VL: B1 VL with S26A, L91V, P96S
notes: Fab; expressed in E. coli with CH1 (Plasmid A, His6 and Flag tags) and lambda CL (Plasmid E); also called H:KT TRV & S26A
B22: Fab VH5-51_IGHD5-18*01>3_IGHJ4*01 G100K/G104T G24T/S28R/G35V (H:KT TRV) & V3-4_IGLJ1*01 S28A (Fab, V domains shown)
VH: B1 VH
VL: B1 VL with S28A, L91V, P96S
notes: Fab; expressed in E. coli with CH1 (Plasmid A, His6 and Flag tags) and lambda CL (Plasmid E); also called H:KT TRV & S28A

Molecular target: T1, Recombinant Human DLL4 (delta-like protein 4) (human, UniProt Q9NR61 27-524)
T1 construct: also called rHuman DLL4; Delta-like 4
Test: ELISA, DLL4 coated on plate, Fab at 100 nM

| Binder | ELISA Signal-blank (100 nM Fab) |
| --- | --- |
| B1 | 0.39 |
| B2 | 0.39 |
| B3 | 0.38 |
| B4 | 0.33 |
| B5 | 0.53 |
| B6 | 0.44 |
| B7 | 0.42 |
| B8 | 0.32 |
| B9 | 0.4 |

Molecular target: T2, Recombinant Human DLL4 (human, UniProt Q9NR61 27-524)
T2 construct: also called delta-like protein 4; rHuman DLL4
Test: ELISA, DLL4 coated on plate, Fab at 100 nM, absorbance at 450 nm minus blank

| Binder | ELISA Signal-blank (100 nM Fab) |
| --- | --- |
| B10 | 0.093 |
| B11 | 0.405 |
| B12 | 0.398 |
| B13 | 0.216 |
| B14 | 0.129 |
| B15 | 0.162 |
| B16 | 0.244 |
| B17 | 0.186 |
| B18 | 0.277 |
| B19 | 0.236 |
| B20 | 0.483 |
| B21 | 0.395 |
| B22 | 0.478 |
